Source: article PMC3229523, “Identification of Lactoferricin B Intracellular Targets Using an Escherichia coli Proteome Chip” (PLoS ONE, 2011)
Ends that are not written are not given here. * marks the point of attachment. Biotin = O=C1N[C@H]2[C@H](CS[C@H]2CCCCC(=O)*)N1

Experiments:
Assay in all cases: peptide or protein array; E. coli proteome chip: purified His-tagged proteins printed in duplicate on Fullmoon slides, blocked with 1% BSA; 10 nM N-terminal biotinylated LfcinB with 1% BSA, room temperature, 1 h; detected with DyLight 649-labeled streptavidin, ratio to DyLight 549-labeled anti-His antibody; ProCAT normalisation, local cut-off; triplicate chips
Conditions in all cases: both partners purified
SrmB = biological target: T1, SrmB (E. coli K-12, UniProt P21507 1-444)
T1 construct: SrmB, E. coli K-12
T1 sequence (looked up): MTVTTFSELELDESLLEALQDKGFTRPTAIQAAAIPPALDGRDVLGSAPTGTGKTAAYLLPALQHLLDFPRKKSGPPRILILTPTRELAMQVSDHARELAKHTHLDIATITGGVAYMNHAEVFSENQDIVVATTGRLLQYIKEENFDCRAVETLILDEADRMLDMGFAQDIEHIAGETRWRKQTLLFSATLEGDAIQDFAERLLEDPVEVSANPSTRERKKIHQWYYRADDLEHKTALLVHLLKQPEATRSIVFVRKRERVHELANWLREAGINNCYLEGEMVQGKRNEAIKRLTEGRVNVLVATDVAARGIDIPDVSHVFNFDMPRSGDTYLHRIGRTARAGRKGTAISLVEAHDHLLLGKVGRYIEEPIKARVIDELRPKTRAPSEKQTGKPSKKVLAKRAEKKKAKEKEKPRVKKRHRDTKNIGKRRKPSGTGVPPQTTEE

GlgS = biological target: T2, GlgS (E. coli K-12, UniProt P26649 1-66)
T2 construct: GlgS, E. coli K-12
T2 sequence (looked up): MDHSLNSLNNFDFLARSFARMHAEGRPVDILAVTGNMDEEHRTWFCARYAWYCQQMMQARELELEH

MetL = biological target: T3, MetL (E. coli K-12, UniProt P00562 1-810)
T3 construct: MetL, E. coli K-12
T3 sequence (looked up): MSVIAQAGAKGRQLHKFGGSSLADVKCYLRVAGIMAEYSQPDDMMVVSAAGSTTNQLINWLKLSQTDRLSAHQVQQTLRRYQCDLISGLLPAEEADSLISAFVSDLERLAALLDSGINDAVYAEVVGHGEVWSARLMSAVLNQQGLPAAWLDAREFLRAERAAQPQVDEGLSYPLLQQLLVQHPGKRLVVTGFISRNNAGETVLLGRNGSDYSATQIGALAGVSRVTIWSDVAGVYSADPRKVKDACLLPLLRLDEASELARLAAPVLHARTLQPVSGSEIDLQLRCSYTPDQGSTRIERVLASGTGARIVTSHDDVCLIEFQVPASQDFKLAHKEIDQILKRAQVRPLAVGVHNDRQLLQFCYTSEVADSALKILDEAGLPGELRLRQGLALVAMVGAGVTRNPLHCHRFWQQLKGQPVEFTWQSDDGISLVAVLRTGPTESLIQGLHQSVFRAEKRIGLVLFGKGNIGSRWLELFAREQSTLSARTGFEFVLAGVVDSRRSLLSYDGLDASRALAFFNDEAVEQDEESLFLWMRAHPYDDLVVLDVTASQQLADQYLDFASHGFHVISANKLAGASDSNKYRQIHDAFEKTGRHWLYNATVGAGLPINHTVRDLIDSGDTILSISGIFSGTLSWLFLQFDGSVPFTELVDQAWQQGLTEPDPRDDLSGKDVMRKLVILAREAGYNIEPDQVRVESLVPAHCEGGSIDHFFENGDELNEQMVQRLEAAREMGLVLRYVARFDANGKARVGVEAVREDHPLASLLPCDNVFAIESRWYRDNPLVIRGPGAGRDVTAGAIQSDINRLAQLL

YtfI = biological target: T4, YtfI (E. coli K-12, UniProt P39317 1-312)
T4 construct: YtfI, E. coli K-12
T4 sequence (looked up): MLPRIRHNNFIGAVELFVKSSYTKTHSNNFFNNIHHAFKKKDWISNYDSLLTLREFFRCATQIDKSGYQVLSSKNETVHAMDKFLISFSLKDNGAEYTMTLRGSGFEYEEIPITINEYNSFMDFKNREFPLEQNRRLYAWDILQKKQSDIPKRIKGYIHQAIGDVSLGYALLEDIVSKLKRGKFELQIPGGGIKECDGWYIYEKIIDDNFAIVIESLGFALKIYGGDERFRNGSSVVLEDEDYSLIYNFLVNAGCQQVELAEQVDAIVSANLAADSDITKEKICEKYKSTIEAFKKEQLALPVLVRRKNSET

GlyQ = biological target: T5, GlyQ (E. coli K-12, UniProt P00960 1-303)
T5 construct: GlyQ, E. coli K-12
T5 sequence (looked up): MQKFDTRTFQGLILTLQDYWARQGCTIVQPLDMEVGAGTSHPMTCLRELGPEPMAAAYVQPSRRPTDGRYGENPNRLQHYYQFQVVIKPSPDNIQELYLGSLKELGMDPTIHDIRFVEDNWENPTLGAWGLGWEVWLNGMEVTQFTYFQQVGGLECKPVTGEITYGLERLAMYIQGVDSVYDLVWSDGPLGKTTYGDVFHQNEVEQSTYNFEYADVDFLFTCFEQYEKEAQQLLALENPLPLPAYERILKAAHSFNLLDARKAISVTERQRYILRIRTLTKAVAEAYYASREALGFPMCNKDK

Measured: binding result

B1: N-terminal biotinylated Lactoferricin B (peptide, UniProt P24627 36-60, looked up)
peptide: Biotin-FKCRRWQWRMKKLGAPSITCVRRAF
modifications: ends and bridges not checked
notes: lactoferricin B (LfcinB), cationic antimicrobial peptide of 25 amino acids; also called biotinylated LfcinB; biotin-labeled LfcinB; source: bought: Kelowna Inc
binds: all assays above
